Results published in the DeepSol protein solubility set.

Experiment: soluble on expression in E. coli; label from the status in PepcDB or PDB records

| Sequence | soluble on expression in E. coli |
| --- | --- |
| MSLSGRYNMNIILGATGQVGSMLVDNLLGKGQPVRAVVRDGLKAQGLKNKGVEVKIADYLDVEALKKAFQGGSSVFLLTPENPESENFINEIQRIMSNYREAVLSSGISKIVGLSSMGAQHKSGTGNLMASYMLEHAFSDLEIEQVFVRPAYYFSNWLGYLELVREYGILPTFFPPELELPMIAPPDVAGFLSDVMTCKTQQERIYEISGPHDYSSSDIAKIFGDVLNKNVTLQQVLPEEWENTLIQAGFSKDGTRNLMLMTKAVIDGKTKNETTNRLRFSTNFKNYLQSVILNMSEGHHHHHH | soluble |
| MAHHHHHHMSVSRFRHSTGHVAKPQRHLLNVTSSTALWDGSNTISCNDKFVAVPWQTFGGTAVFKHDTFGRLAPNPPLVLGQKGQIIDVKFDPFNDQKLFTASEDGSIFGWGIPAEGLQSNILSPLVELKGHNKKCGIISFHPSANGVLASAGVDRVIKVWDVERGTAVNTISSLSDYATGLEWNLRGSLFCVASRDKTLRVIDPRDCTVVSSVESHASARSQRCIWCKRKDTIMTLGCSKSQQRQIKLWDTRKMESPYSVTELDQSSAAFIPMYDEDLNLLILGSKGENNVKCFELMNEGLTFSYEVNSNDPMKGLCMMPKWSLDVKKCEFGRLYQLTYHSLFTIEMLLPRKQSCTEFQGDVFPSTFADHSAMSADEFFRGANADPREYDLSGMFDGHSPRLMGGSTPSPEKLPVAVQAAKPLMEAPKGETTTGREKSSVSVPESSEATSAPSDDKTEKHADPCADMTQRDILDKQRRLQELSEKVRTCHHEISALRKALHEKEAEMLQVLEDIQSI | not soluble |
| MSLTERPRDCRPVVRRARTSDVPAIKQLVDTYAGKILLEKNLVTLYEAVQEFWVAEHPDLYGKVVGCGALHVLWSDLGEIRTVAVDPAMTGHGIGHAIVDRLLQVARDLQLQRVFVLTFETEFFARHGFTEIEGTPVTAEVFDEMCRSYDIGVAEFLDLSYVKPNILGNSRMLLVLEGHHHHHH | soluble |
| MGSDKIHHHHHHVPPLRLAIVGDIHDQWTLADQQLLLQLQPDLTLFVGDFGNESLALVQAIAAIPLRKAVILGNHDAWYTATRWRRSQCPYDWMRENRFEQQLEALGGLHIGYGRLDFPEWNLSVVGGRPCSAGGSQWQHRRFYRHYYQVGSFPESAQRIADCAIASPCDRVLFLAHCGPSGLGDQPEDPCGKDWSRPGGDFGDPDLAMAIAQVQAQKVVPLVCFGHMHHRLRHRRDRPRRSWHRDTAGTVYLNAAASPRILKAQQTTLHHLLWVELSDSLVTAQQTWWTPAGVLVQSEELPLVPQPA | not soluble |
| MSCYYYCKYCKEYKNKHHDCCKNTSKCHDNKDNLVRASAFRARNTVNQNVPANTFVKVLFQNEQFDLANEYNPATSIFMPKTKGVYSIIGTIGFFPNDPTLNYRARVEIRVNGNAAIAIDNDFFGPISFGNVVSVSTIVQLNAGDEVEIYAQSSIDGVLSPLEDGAHFEAARFPSPIKLEHHHHHH | not soluble |
| MNFNGSLFERLADKTQKKTDLNEEERITASIATHLAKLLGTRAGSVNTLPDYGLPELNNASLSAHDTVRQSRLAIEKAIRDYEPRLSEVHVMSDESSWCVLKRTFSIDASLDMNGVKKTVVFSIAVAGDGHVILN | not soluble |
| MSHLALKDLFSGFFVIDDEEEVEVPDKQQQVNEAPAKEQSQQTTKQNAIKSVPQKSASRYTTTSEERNNRMSNYSKNNSRNVVTMNNATPNNASQESSKMCLFEPRVFSDTQDIADELKNRRATLVNLQRIDKVSAKRIIDFLSGTVYAIGGDIQRVGTDIFLCTPDNVEVAGSITDHIENMEHSFDLEHHHHHH | not soluble |
| MSLQDLTINAIGAQGDGLARTADGKPAFVPLTLPGEVVRAKMDGARGEVVEILAPSPERVAPACRHYGVCGGCALQHWAAEPYRAWKAEQVRLQLSMEGLETEILPTFAAPPASRRRVALHARKGGKGQGARLGFKERRSWNLVSIEECPVTDPRLVAALPALARLAEPFLEHPKSAPTLHVTLTATGLDIDITGVERKSGGLSADARMRAAMAAGEGDFARVTLAGETIYGARQPLVKLGQAVVALPPGSFLQAVPAAEKAMVELAVAEAQGASRVADLYCGVGTFTFPLAEVAQVYAAEMSAPAITALKAAIGGAPGLKPITAEARDLVRRPVLSTELAKTDVVVIDPPRAGAAEQTVEIAKSKVAKVLGVSCNPQTFAKDARVLVDAGFKLVRVTPVDQFVWSPHIELVGVFTREGHHHHHH | soluble |
